The record followed here is patent US7811992B2, “Anti-infarction molecules” (Stasys Technologies, Inc., priority 2002, dated 2010).

Like-named read-outs stand apart in the source and are kept apart here. Square brackets hold non-standard residues; d marks the D form. Side chains are listed from the residue outwards. Ends that are not written are not given here. Peptide text beside a SMILES is read from it. * marks the point of attachment. Acetyl(1-adamantyl) = O=C(CC12CC3CC(CC(C3)C1)C2)*; Hyp = O=C(O)[C@@H]1C[C@@H](O)CN1; 2Thi = N[C@@H](Cc1cccs1)C(=O)O; Nicotinoyl = O=C(c1cccnc1)*; Cbz = O=C(OCc1ccccc1)*

The target of test [1] is T1, human angiotensin AT2 receptor (Homo sapiens, UniProt P50052).
T1 sequence (P50052 1-363): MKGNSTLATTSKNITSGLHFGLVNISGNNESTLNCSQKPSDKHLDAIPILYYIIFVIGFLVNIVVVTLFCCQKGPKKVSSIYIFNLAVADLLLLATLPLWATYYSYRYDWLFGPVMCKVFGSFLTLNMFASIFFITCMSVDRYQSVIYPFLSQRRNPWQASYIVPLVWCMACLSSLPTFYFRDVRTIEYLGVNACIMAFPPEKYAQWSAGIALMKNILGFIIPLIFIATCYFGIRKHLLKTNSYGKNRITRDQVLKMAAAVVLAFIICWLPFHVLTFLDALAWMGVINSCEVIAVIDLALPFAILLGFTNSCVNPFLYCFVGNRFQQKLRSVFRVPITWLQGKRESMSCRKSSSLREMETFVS
Conditions: for Activity/inhibition ATII binding assay: compounds screened at 10 μM, % inhibition of binding at the AT2 receptor; for % Inhibition ATII receptor: screened at 10 μM; for nH: reference data, Hill coefficient; for inhibition at 10 µM: read-out: % Inhibition ATII receptor.
Experimental: HeLa cells stably transfected with a plasmid encoding the human angiotensin AT2 receptor were used to prepare membranes in modified Tris HCl pH 7.4 by standard techniques. […] Non-specific binding was estimated in the presence of 10 μM. […] Compounds were screened at 10 μM. The ATII binding studies were performed essentially like that disclosed in Whitebread, S. E. et al., Radioligand CGP42112A: a novel high affinity and high selective ligand for the characterization of angiotensin AT2 receptors.

Test [2] concerns the target T2, Bradykinin B1 (Homo sapiens, UniProt P46663).
T2 sequence (P46663 1-353): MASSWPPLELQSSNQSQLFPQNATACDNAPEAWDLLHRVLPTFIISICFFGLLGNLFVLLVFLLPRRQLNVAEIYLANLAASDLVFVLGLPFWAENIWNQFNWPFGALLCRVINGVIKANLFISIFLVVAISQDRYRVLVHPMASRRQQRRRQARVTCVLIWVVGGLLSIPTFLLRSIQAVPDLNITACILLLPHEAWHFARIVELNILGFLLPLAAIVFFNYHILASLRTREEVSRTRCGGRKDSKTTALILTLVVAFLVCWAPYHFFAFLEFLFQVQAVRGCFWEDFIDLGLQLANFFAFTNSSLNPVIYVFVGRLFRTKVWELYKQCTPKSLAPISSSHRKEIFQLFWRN
Nature of the test: Receptor panel screen, ligand-receptor binding, FPAh 10 μM: Bradykinin B1. The text has this: (§1) For example, FPA was used in a screen of 150 receptors to determine which receptors FPA could interact with. One way of assessing FPA interactions is to look at the amount that FPA can modulate a given receptor relative to its natural ligand. Disclosed in tables 13 and 14 are ligand-receptor binding studies that are, for example, modulated by more than 20% (inhibition or excitation) by the human form of Fibrinopeptide-A (FPA-h).

The subject of test [3] is Cholecystokinin. Nature of the test: Receptor panel screen, ligand-receptor binding, FPAh 10 μM: Cholecystokinin.
Excerpt: as §1

In test [4] the target is T3, Estrogen ERa (Homo sapiens, UniProt P03372).
T3 sequence (P03372 1-595): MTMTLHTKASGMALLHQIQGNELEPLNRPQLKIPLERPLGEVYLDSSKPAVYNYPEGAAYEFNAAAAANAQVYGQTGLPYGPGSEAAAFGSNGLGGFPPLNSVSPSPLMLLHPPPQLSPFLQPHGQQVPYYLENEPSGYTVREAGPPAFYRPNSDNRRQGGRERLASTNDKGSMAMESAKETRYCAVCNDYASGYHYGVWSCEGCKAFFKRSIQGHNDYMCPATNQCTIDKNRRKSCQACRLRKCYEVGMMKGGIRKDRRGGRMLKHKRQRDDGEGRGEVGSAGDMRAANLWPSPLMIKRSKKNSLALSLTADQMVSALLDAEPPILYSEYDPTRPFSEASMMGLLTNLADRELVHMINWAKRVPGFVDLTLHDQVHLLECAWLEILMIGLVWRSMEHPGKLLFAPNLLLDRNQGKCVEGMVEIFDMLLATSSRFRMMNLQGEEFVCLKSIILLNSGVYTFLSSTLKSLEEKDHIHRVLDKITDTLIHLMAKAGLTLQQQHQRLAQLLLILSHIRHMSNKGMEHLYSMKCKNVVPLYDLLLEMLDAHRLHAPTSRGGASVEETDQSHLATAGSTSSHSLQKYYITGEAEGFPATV
Nature of the test: Receptor panel screen, ligand-receptor binding, FPAh 10 μM: Estrogen ERa.
Excerpt: as §1

Test [5] concerns Inositol Triphosphate IP3. As to the kind of experiment: Receptor panel screen, ligand-receptor binding, FPAh 10 μM: Inositol Triphosphate IP3.
Excerpt: as §1

The test system of test [6] is Potassium Channel [Ka]. Nature of the test: Receptor panel screen, ligand-receptor binding, FPAh 10 μM: Potassium Channel [Ka].
Excerpt: as §1

For test [7], the target named is T4, Thyrotropin Releasing Hormone (Homo sapiens, UniProt P34981).
T4 sequence (P34981 1-398): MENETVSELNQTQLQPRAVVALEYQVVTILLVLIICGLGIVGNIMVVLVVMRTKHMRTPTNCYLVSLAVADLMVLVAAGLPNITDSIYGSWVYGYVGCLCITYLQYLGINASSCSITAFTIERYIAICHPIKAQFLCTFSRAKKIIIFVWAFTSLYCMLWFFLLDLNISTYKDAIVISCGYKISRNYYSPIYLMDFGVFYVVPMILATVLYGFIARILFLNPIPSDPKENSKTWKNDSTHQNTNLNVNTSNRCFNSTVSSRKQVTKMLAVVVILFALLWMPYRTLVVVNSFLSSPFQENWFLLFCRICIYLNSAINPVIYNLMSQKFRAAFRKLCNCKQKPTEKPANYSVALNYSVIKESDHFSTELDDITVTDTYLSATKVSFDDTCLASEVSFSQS
As to the kind of experiment: Receptor panel screen, ligand-receptor binding, FPAh 10 μM: Thyrotropin Releasing Hormone.
Excerpt: as §1

Test [8] concerns Vascular endothelial growth factor. Nature of the test: Receptor panel screen, ligand-receptor binding, FPAh 10 μM: Vascular endothelial growth factor.
Excerpt: as §1

Test [9] deals with Glutamate AMPA. Nature of the test: Receptor panel screen, ligand-receptor binding, FPAh 10 μM: Glutamate AMPA.
Excerpt: as §1

The target in test [10] is Serotonin 5-HT 2a (Homo sapiens, UniProt P28223). Nature of the test: Receptor panel screen, ligand-receptor binding, FPAh 10 μM: Serotonin 5-HT 2a.
Chain of Serotonin 5-HT 2a (P28223 whole entry): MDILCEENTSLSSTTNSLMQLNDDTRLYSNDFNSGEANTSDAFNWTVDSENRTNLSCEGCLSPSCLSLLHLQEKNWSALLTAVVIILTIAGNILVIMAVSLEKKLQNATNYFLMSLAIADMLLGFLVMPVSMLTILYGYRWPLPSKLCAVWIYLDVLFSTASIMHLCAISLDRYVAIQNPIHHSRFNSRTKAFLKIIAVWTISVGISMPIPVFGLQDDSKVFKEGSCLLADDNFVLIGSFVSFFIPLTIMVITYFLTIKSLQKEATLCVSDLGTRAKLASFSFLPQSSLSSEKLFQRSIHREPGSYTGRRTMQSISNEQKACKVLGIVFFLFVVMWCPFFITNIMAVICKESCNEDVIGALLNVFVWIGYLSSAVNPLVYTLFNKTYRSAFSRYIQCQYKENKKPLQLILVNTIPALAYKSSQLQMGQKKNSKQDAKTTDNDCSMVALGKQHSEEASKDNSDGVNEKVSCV
Excerpt: as §1

Consider PPGFSPFR [Bradykinin (2-9)], for which the “Activity/inhibition ATII binding assay” value in test [1] was −13%.
On the same count and under the same terms, then “N-Admantanecarbonyl-DArg0-HyP3, Thi5,8, DPhe7] Bradykinin”, with 63%.
As for “VP042 (XRPXGXSXXR; D-residues; non-natural residues)”, in test [1], the “% Inhibition ATII receptor” value was 29%.
In the case of “ADSGE GDFLAEGGGVR (ADSGEGDFLAEGGGVR) [FPA-h, synthesized human Fibrinopeptide-A]”, the Inhibited in test [2] turned out to be 24%; in [3], 33%; in test [4], 33%; in test [5] it was 33%; in test [6], 25%; in test [7], 23%. The Stimulated is 22% in test [8], 30% in test [9] and 21% in test [10].
Turning to Arg-Pro-Pro (RPP) [Bradykinin (1-3)], in test [1], the “Activity/inhibition ATII binding assay” value is reported as −2%.
Turning to VP057 (RPP), the “% Inhibition ATII receptor” value in test [1] was −2%.
In test [1], `CC[C@H](C)[C@H](NC(=O)[C@@H]1CCCN1C(=O)[C@H](Cc1c[nH]cn1)NC(=O)[C@H](CCCCNC(=O)[C@H](CCCNC(=N)N)NC(=O)OCc1ccccc1)NC(=O)[C@H](Cc1ccc(O)cc1)NC(=O)c1cccnc1)C(=O)O` [CGP-42112A, nicotinic acid-Tyr-(N-benzoylcarbonyl-Arg)Lys-His-Pro-Ile-OH, reference compound] (Nicotinoyl-YK([Arg-Cbz])HPI-OH) displayed a nH of 1.1.
Compound `CNCC(=O)N[C@@H](CCCN=C(N)N)C(=O)N[C@H](C(=O)N[C@@H](Cc1ccc(O)cc1)C(=O)N[C@H](C(=O)N[C@@H](Cc1cnc[nH]1)C(=O)N1CCC[C@H]1C(=O)N[C@@H](C)C(=O)O)C(C)C)C(C)C` [Saralasin] yielded a nH in test [1] of 0.9.
In the case of “Arg-Pro-Pro-Gly-Phe-Ser-DPhe-Phe-Arg (RPPGFS[dF]FR) [DPhe7] Bradykinin]”, the “Activity/inhibition ATII binding assay” value in test [1] is reported as 60 9%.
`CC[C@H](C)[C@H](NC(=O)[C@@H]1CCCN1C(=O)[C@H](Cc1c[nH]cn1)NC(=O)[C@@H](NC(=O)[C@H](Cc1ccc(O)cc1)NC(=O)[C@@H](NC(=O)[C@H](CCCNC(=N)N)NC(=O)CNC)C(C)C)[C@@H](C)CC)C(=O)O` [[Sar^1, Ile^8] Angiotensin II] came in with a nH in test [1] of 1.0.
For “DArg-Arg-Pro-Hyp-Gly-Igl-Ser-Dlgl-Oic-Arg (XRPXGXSXXR; D-residues; non-natural residues) [B9430]”, in test [1], the “Activity/inhibition ATII binding assay” value is 70%.
For VP061 (PPGFSP), in test [1], the “% Inhibition ATII receptor” value was −6%.
With `N=C(N)NCCC[C@H](NC(=O)[C@H](Cc1cccs1)NC(=O)[C@@H](Cc1ccccc1)NC(=O)[C@H](CO)NC(=O)[C@H](Cc1cccs1)NC(=O)CNC(=O)[C@@H]1C[C@@H](O)CN1C(=O)[C@@H]1CCCN1C(=O)[C@H](CCCNC(=N)N)NC(=O)[C@@H](CCCNC(=N)N)NC(=O)CC12CC3CC(CC(C3)C1)C2)C(=O)O` [VP046] ({Acetyl(1-adamantyl)}-[dR]RP[Hyp]G[2Thi]S[dF][2Thi]R-OH), in [1], the inhibition at 10 µM was found to be 61%.
For the compound “VP063 (XRPXGXSXXR; D-residues; non-natural residues)”, the “% Inhibition ATII receptor” value in test [1] worked out at 35%.
Turning to VP062 (PPGFSPFR), the “% Inhibition ATII receptor” value in [1] is −13%.
Still for that read-out and setting: then VP043 (RPPGFS[dF]FR), with 9%.
The same measure, in the same setting: the figure for “VP064 (XRPXGXSXXR; D-residues; non-natural residues)” is 70%.
Turning to “DArg-Arg-Pro-Hyp-Gly-Thi-Ser-Dlgl Oic-Arg (XRPXGXSXXR; D-residues; non-natural residues) [B9340]”, in test [1], the “Activity/inhibition ATII binding assay” value is reported as 35%.
With `N=C(N)NCCC[C@H](NC(=O)[C@H](Cc1cccs1)NC(=O)[C@@H](Cc1ccccc1)NC(=O)[C@H](CO)NC(=O)[C@H](Cc1cccs1)NC(=O)CNC(=O)[C@@H]1CCCN1C(=O)[C@@H]1CCCN1C(=O)[C@@H](N)CCCNC(=N)N)C(=O)O` [VP045] (H-RPPG[2Thi]S[dF][2Thi]R-OH), in test [1], the inhibition at 10 µM was determined as 53%.
Consider VP059 (RPPGFS), for which the “% Inhibition ATII receptor” value in test [1] is listed as −12%.
Turning to `NC(N)=NCCC[C@H](NC(=O)[C@H](Cc1ccccc1)NC(=O)[C@@H]1CCCN1C(=O)[C@H](CO)NC(=O)[C@H](Cc1ccccc1)NC(=O)CNC(=O)[C@@H]1CCCN1C(=O)[C@@H]1CCCN1C(=O)[C@@H](N)CCCN=C(N)N)C(=O)O` [Bradykinin], the “Activity/inhibition ATII binding assay” value in [1] (10 µM) is 12%.
Take “Arg-Pro-Pro-Gly-Phe (RPPGF) [Bradykinin (1-5)]”: in test [1], the “Activity/inhibition ATII binding assay” value worked out at 1%.
VP052 (RPPGFSPYR): in test [1], the “% Inhibition ATII receptor” value is recorded as −1%.
“N-Adamantaneacetyl-DArg-Arg-Pro-Hyp-Gly-Thi-Ser-DPhe-Thi-Arg”: the “Activity/inhibition ATII binding assay” value in [1] turned out to be 61%.
“Arg-Pro-Pro-Gly-Thi-Ser-DPhe-Thi-Arg (RPPG[2Thi]S[dF][2Thi]R) [[Thi5,8,DPhe7] Bradykinin]”: in test [1], the “Activity/inhibition ATII binding assay” value was 53%.
Still for that read-out and setting: the figure for RPPGFS [Bradykinin (1-6)] is −12%; for “(DArg-Arg-Pro-Hyp-Gly-Thi-Ser-DTic-Oic-Arg (XRPXGXSXXR; D-residues; non-natural residues) [Hoe 140, reference compound]” it is 29%; for PPGFSP [Bradykinin (2-7)] it is −6%.
As for VP058 (RPPGF), the “% Inhibition ATII receptor” value in test [1] was 1%.
